Ends that are not written are not given here.
Assays:
[1] = target: T1, HCV Core1-169 recombinant antigen (hepatitis C virus (HCV-1), UniProt P26664 1-169); experiment: sandwich EIA, 25 ng/ml core1-169; capture mAb C11-7
T1 sequence: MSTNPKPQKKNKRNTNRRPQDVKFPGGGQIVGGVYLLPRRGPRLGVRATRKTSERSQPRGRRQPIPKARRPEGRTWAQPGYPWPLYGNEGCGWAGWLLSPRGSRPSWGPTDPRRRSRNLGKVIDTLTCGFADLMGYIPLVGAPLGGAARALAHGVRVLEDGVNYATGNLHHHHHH

[2] = target: T1, HCV Core1-169 recombinant antigen; experiment: sandwich EIA, 25 ng/ml core1-169; capture mAb C11-9
[3] = target: T1, HCV Core1-169 recombinant antigen; experiment: sandwich EIA, 25 ng/ml core1-169; capture mAb 208A-110
[4] = target: T1, HCV Core1-169 recombinant antigen; experiment: sandwich EIA, 25 ng/ml core1-169; capture mAb 208A-293
[5] = target: T1, HCV Core1-169 recombinant antigen; experiment: sandwich EIA, 25 ng/ml core1-169; capture mAb 208A-557
[6] = target: T1, HCV Core1-169 recombinant antigen; experiment: sandwich EIA, 25 ng/ml core1-169; capture mAb 208A-692
[7] = target: T1, HCV Core1-169 recombinant antigen; experiment: sandwich EIA, 25 ng/ml core1-169; capture mAb 208B-741
[8] = target: T1, HCV Core1-169 recombinant antigen; experiment: sandwich EIA, 25 ng/ml core1-169; capture mAb 208B-1096
[9] = target: T1, HCV Core1-169 recombinant antigen; experiment: sandwich EIA, 25 ng/ml core1-169; capture NC capture mAb
[10] = target: T1, HCV Core1-169 recombinant antigen; experiment: sandwich EIA, 25 ng/ml core1-169; capture mAb 208A-207-271
[11] = target: T1, HCV Core1-169 recombinant antigen; experiment: sandwich EIA, 25 ng/ml core1-169; capture mAb 208B-395-334
[12] = target: T1, HCV Core1-169 recombinant antigen; experiment: sandwich EIA, 25 ng/ml core1-169; capture mAb 208B-612-226
[13] = target: T2, C113WT biotin labeled HCV core peptide (Hepatitis C virus, also: biotin label, position not given here); experiment: EIA, captured mAb + biotin peptide
T2 peptide: RGSRPSWGPTD

[14] = target: T3, C113T110N biotin labeled HCV core peptide (Hepatitis C virus, also: biotin label, position not given here); experiment: EIA, captured mAb + biotin peptide
T3 peptide: RGSRPSWGPND

B1: 208B-612-226 monoclonal antibody (antibody, V domains shown)
VH: EVQLQQSGPELVKPGASVKMSCKASGYRFTSYVMHWVRQKPGQGLEWIGYIDPHNDDTKYSEKFRGKATLTSDKSSTTAYMELSSLTSEDSAVYYCVRYSYDRDYSPMDYWGQGTSVTVSS
VL: QIVLTQSPTLMSASPGEKVTMTCSASSTVTYIYWYQQKPGSSPRLWMYDTFNLVSGVPARFSGSRSGTSYFLTISSMEGEDAATYYCQQYSDSPYTFGGGTKLEIKR
B1 gave an OD492 nm [1] of 1.52 OD492, an OD492 nm [2] of 0.64 OD492 and an OD492 nm [3] of 0.26 OD492. The OD492 nm [4] was 0.28 OD492, the OD492 nm [5] was 0.23 OD492 and the OD492 nm [6] was 0.18 OD492. It also gave an OD492 nm [7] of 0.23 OD492, an OD492 nm [8] of 0.7 OD492 and an OD492 nm [9] of 0.21 OD492. It also gave an OD492 nm [10] of 0.24 OD492, an OD492 nm [11] of 0.83 OD492 and an OD492 nm [12] of 0.23 OD492.

B2: HCV 208B-1096 monoclonal antibody (antibody, V domains shown)
VH: QVQLQQSGAGLAKPGASVKMSCKASGYTFTANKMHWAKQRPGQGLEWIGYIDPSSGYTEYNHKIQYKATLTADTSSSTAYMQLSTLTFEDSAVYYCTNFAYWGQGTLVTVSA
VL: DIVMTQTPLTLSVTIGQPASISCKSSQSLLFTNGKTYLNWFLQRPGQSPKRLIYLLSKLDSGVPDRFSGSGSGTDFTLKISRVEAEDLGVYYCLQSTYFPLTFGAGTKLELKR
B2 was tested, and the OD492 nm [1] was 1.06 OD492, the OD492 nm [2] was 0.33 OD492 and the OD492 nm [3] was 0.19 OD492. For the same binder, the OD492 nm [4] was 0.24 OD492, the OD492 nm [5] was 0.17 OD492 and the OD492 nm [6] was 0.15 OD492. The OD492 nm [7] was 0.23 OD492, the OD492 nm [8] was 0.26 OD492 and the OD492 nm [9] was 0.17 OD492. For the same binder, the OD492 nm [10] was 0.18 OD492, the OD492 nm [11] was 0.2 OD492 and the OD492 nm [12] was 0.24 OD492.

B3: 208B-395-334 monoclonal antibody (antibody, V domains shown)
VH: QVQLQQSGAGLAKPGASVKMSCKASGYTFTANKMHWTKQRPGQGLEWIGYIDPSSGYTQYNHKIQDKATLTADTSSSTAYMQLSSLTFEDSAVYYCTNFAYWGQGTLVTVSA
VL: DIVLTQSPATLSVTPGDRVSLSCRASQRIYNYLHWYQQKSHESPRLLIKYASQSISGIPSRFSGSGSGTDFILTINSVETEDFGMYFCQQSNSWPLTFGAGTKLELRR
With B3 the OD492 nm [1] was 0.89 OD492, the OD492 nm [2] was 0.32 OD492 and the OD492 nm [3] was 0.21 OD492. The OD492 nm [4] was 0.26 OD492, the OD492 nm [5] was 0.21 OD492 and the OD492 nm [6] was 0.15 OD492. It also gave an OD492 nm [7] of 0.21 OD492, an OD492 nm [8] of 0.23 OD492 and an OD492 nm [9] of 0.2 OD492. For the same binder, the OD492 nm [10] was 0.2 OD492, the OD492 nm [11] was 0.23 OD492 and the OD492 nm [12] was 0.26 OD492.

B4: Neo4 monoclonal antibody (antibody, V domains shown)
VH: QIQLKESGPAVIKPSQSLSLTCIVSGFSITSSVYCWQWIRQPPGKGLEWMGRICYDGSVDYSPSITSRGTISRDTSLNKVFFQLSSVTNEDTAMYYCSRENHIDYYDTTYPSFDVWGAGTTVTVSS
VL: DIVLTQSPASLIVSLGQRATISCRASKSVNEYGYTYMHWYQQKPGLPPKLLIYLASNLDSGVPARFSGSGSGTDFTLNIHPVEEEDAATYYCQHSRELPYTFGGGTKLEIKR
notes: also called HCV Neo4
B4: no binding [13]; no binding [14].

— patent US20170052184A1 (published 2017)
